According to patent US20250163181A1 (SAINT LOUIS UNIVERSITY, published 2025):

Columns and labels:
[1] = molecular target: T1, prothrombin variant S91A/Y93A (human, UniProt P00734 44-622, S91A; Y93A); test: SPR, POmAb immobilised
T1 construct: range 1-579; Recombinant, expressed in Expi293 cells in the presence of vitamin K. Positions 91 and 93 count on the mature protein; also called ProTS91A/Y93A

[2] = molecular target: T2, kringle-1 of human prothrombin (amino acids 44-155) (human, UniProt P00734 87-198); test: SPR, calculated from Kd
T2 construct: Numbers count on the mature protein

[3] = molecular target: T3, human prothrombin wild-type (human, UniProt P00734 44-622); test: SPR, calculated from Kd
T3 construct: range 1-579; Residue numbers count on the mature protein, not on the precursor entry; In some runs 200 uM argatroban was added to force the open form; also called coagulation factor II; PT

[4] = molecular target: T2, kringle-1 of human prothrombin (amino …); test: SPR, second set, calculated from Kd
[5] = molecular target: T3, human prothrombin wild-type; test: SPR, second set, calculated from Kd
[6] = molecular target: T1, prothrombin variant S91A/Y93A; test: SPR, second set, calculated from Kd
[7] = molecular target: T2, kringle-1 of human prothrombin (amino …); test: ELISA, antigen immobilised, Hill fit
[8] = molecular target: T3, human prothrombin wild-type; test: ELISA, antigen immobilised, Hill fit
[9] = molecular target: T1, prothrombin variant S91A/Y93A; test: ELISA, antigen immobilised, Hill fit
[10] = molecular target: T2, kringle-1 of human prothrombin (amino …); test: SPR, POmAb immobilised on CM5, 1:1 model, 25 C
[11] = molecular target: T3, human prothrombin wild-type; test: SPR, POmAb immobilised on CM5, 1:1 model, 25 C
[12] = molecular target: T2, kringle-1 of human prothrombin (amino …); test: SPR, POmAb immobilised, second set, HEPES buffer, 25 C
[13] = molecular target: T3, human prothrombin wild-type; test: as above
[14] = molecular target: T1, prothrombin variant S91A/Y93A; test: as above
[15] = molecular target: T3, human prothrombin wild-type; test: SPR, calculated from Kd; prothrombin with 200 µM argatroban
[16] = molecular target: T3, human prothrombin wild-type; test: SPR, second set, calculated from Kd; prothrombin with argatroban
[17] = molecular target: T3, human prothrombin wild-type; test: SPR, POmAb immobilised; prothrombin with 200 µM argatroban (open form)
[18] = molecular target: T1, prothrombin variant S91A/Y93A; test: SPR, calculated from Kd; SPR, first set, Tris pH 7.4; ΔG calculated from Kd
[19] = molecular target: T3, human prothrombin wild-type; test: SPR, POmAb immobilised, second set; prothrombin with argatroban (open form)
[20] = molecular target: T4, kringle-2 of human prothrombin (amino acids 156-271) (human, UniProt P00734 199-314); test: ELISA, antigen coated on the plate, POmAb detected with anti-mouse IgG (gamma)-HRP and TMB, OD at 450 nm [panel C]
T4 construct: range 156-271; Numbers count on the mature protein

plasminogen = plasminogen (UniProt P00747 20-810, limits assumed); test: as above
[21] = molecular target: tissue plasminogen activator (UniProt P00750 36-562); test: as above
factor XII = molecular target: T5, factor XII (UniProt P00748 20-615); test: as above
T5 construct: also called FXII
T5 sequence (looked up): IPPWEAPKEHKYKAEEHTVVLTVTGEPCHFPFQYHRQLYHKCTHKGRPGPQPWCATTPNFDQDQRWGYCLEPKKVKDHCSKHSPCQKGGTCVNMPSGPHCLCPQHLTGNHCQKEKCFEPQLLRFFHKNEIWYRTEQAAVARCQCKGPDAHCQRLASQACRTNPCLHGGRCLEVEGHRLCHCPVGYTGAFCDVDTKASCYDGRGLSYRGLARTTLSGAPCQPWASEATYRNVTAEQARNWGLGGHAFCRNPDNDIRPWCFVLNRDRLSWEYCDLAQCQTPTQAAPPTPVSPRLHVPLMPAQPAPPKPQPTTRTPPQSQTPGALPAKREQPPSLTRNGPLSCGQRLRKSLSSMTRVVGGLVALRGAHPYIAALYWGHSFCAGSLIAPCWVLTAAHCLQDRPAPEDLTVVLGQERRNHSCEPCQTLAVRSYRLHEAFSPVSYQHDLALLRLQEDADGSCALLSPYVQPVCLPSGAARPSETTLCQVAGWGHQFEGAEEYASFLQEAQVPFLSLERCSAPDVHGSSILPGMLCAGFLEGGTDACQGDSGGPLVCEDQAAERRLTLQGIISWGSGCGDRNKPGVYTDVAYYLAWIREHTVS

β2-glycoprotein I = molecular target: T6, β2-glycoprotein I (UniProt P02749 20-345); test: as above
T6 construct: also called B2-glycoprotein I; β2GPI
T6 sequence (looked up): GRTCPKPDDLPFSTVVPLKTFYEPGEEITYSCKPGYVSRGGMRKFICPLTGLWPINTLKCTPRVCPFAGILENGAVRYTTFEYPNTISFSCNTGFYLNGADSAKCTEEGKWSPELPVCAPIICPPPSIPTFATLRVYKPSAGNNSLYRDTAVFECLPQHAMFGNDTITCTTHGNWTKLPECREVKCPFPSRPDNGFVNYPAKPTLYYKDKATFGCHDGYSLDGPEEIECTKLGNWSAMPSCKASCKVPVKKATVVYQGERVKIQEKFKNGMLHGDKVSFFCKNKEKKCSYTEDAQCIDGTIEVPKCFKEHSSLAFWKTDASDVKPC

[22] = molecular target: T1, prothrombin variant S91A/Y93A; test: SPR, POmAb immobilised on CM5, 1:1 model, 25 C; SPR, first set, 20 mM Tris pH 7.4, 25 C: weak binding with fast dissociation
[23] = molecular target: T1, prothrombin variant S91A/Y93A; test: SPR, POmAb immobilised, second set, HEPES buffer, 25 C; SPR, second set, 20 mM HEPES pH 7.4, 25 C: weak binding with fast dissociation
[24] = molecular target: T4, kringle-2 of human prothrombin (amino …); test: ELISA, immobilised antigen, 5B10 titrated, OD at 450 nm [panel B]

Chain of tissue plasminogen activator (P00750 36-562): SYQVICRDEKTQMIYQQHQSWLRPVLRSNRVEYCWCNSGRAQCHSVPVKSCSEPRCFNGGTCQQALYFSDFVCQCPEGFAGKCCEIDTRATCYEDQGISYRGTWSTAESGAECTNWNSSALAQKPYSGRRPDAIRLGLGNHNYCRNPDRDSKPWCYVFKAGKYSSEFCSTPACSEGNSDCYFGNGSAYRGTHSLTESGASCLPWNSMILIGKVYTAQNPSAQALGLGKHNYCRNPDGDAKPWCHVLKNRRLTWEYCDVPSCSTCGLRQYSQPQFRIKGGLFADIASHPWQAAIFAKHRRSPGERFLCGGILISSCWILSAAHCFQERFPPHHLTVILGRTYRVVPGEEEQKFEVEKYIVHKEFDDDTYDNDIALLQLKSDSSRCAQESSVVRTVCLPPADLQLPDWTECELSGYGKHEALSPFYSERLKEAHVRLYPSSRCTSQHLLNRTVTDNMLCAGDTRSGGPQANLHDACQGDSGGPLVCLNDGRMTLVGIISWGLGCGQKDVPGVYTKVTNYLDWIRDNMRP
Chain of plasminogen (P00747 20-810 limits assumed): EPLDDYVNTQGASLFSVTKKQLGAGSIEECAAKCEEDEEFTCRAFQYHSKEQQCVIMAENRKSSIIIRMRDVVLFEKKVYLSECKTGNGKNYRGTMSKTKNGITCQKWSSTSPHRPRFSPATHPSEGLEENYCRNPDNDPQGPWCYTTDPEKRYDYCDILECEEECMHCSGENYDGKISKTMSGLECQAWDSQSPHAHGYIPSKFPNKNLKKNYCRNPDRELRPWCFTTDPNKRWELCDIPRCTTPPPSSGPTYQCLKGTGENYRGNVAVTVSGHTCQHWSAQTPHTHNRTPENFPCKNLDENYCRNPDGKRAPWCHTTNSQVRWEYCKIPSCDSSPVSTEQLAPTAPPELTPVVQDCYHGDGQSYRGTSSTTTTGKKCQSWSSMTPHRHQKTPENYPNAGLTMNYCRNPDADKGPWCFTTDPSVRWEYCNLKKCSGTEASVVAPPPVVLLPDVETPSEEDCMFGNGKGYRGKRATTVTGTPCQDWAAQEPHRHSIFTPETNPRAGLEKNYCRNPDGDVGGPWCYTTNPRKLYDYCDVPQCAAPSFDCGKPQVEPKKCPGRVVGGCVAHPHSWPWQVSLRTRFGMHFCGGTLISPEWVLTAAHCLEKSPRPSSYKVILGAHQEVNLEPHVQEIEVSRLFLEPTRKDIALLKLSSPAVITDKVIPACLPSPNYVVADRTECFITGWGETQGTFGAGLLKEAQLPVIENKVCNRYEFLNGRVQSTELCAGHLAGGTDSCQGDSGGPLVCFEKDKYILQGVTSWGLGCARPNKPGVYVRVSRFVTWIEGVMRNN

B1: POmAb (Prothrombin Open monoclonal Antibody) (antibody, mouse IgG1, kappa, V domains shown)
VH: EVHLVESGGGLVKPGGSLKLSCAASGFTFSSYYMYWVRQTPEKRLEWVATISNGGIYTYYLDSVRGRFTISRDNAKNILYLQMSGLSSADSAIYYCTRDGERQGAMDYWGQGTSVTVSS
VL: QIVLTQSPAIMSVSLGERVTMTCIVSSSVSSTYLHWYQQKPGSSPKLWIYSSSNLASGVPTRFSGSGSGTSHSLTISSMEAEDAAAYYCQLYRRSPLTFGAGTKLELKR
notes: also called POmAb IgG; IgG POmAb
In the case of B1, the “fold change of dissociation rate against wild-type prothrombin” value [1] is reported as ~1000 fold, the ΔG [2] is reported as -11.5 kcal/mol and the ΔG [3] is reported as -11.7 kcal/mol. The ΔG [4] was -11.3 kcal/mol, the ΔG [5] was -10.5 kcal/mol and the ΔG [6] was -8.2 kcal/mol. The EC50 [7] was 0.02 µg/mL, the EC50 [8] was 0.013 µg/mL and the EC50 [9] was 0.301 µg/mL. For the same binder, the Kd [10] was 3.7 nM, the koff [10] was 0.00027 s⁻¹ and the kon [10] was 69100 M⁻¹ s⁻¹. For the same binder, the Kd [11] was 2.5 nM, the koff [11] was 0.00013 s⁻¹ and the kon [11] was 52000 M⁻¹ s⁻¹. The Kd [12] was 5.33 nM, the koff [12] was 0.000314 s⁻¹ and the kon [12] was 58900 M⁻¹ s⁻¹. The Kd [13] was 19.2 nM, the koff [13] was 0.000122 s⁻¹ and the kon [13] was 6350 M⁻¹ s⁻¹. For the same binder, the Kd [14] was 1010 nM, the ΔG [15] was -11.6 kcal/mol and the ΔG [16] was -11.7 kcal/mol. For the same binder, the Kd [17] was 2.98 nM, the koff [17] was 0.00012 s⁻¹ and the kon [17] was 40300 M⁻¹ s⁻¹. The ΔG [18] was -6.7 kcal/mol, the Kd [19] was 2.59 nM and the koff [19] was 9.49e-05 s⁻¹. The kon [19] was 36600 M⁻¹ s⁻¹, the binding result [20] was “no binding” and the binding result (plasminogen) was “no binding (tested: 50 µg/ml)”. B1: no binding (tested: 50 µg/ml) [21]; no binding (tested: 50 µg/ml) (factor XII); no binding (tested: 50 µg/ml) (β2-glycoprotein I). It also gave a Kd [22] of 12000 nM, a koff [22] of 0.29 s⁻¹ and a kon [22] of 24200 M⁻¹ s⁻¹. For the same binder, the koff [23] was 0.0702 s⁻¹ and the kon [23] was 69600 M⁻¹ s⁻¹.

B2: 5B10 monoclonal antibody (antibody, V domains shown)
VH: QIQLVQSGPELKKPGETVKISCKASGYTFTNYGMNWVKQAPGKGLKWMGWINTYTGEPTYADDFKGRFAFSLETSASTAYLQINNLKNEDMATYFCARGGYYYGNNYEAYWGQGTLVTVSA
VL: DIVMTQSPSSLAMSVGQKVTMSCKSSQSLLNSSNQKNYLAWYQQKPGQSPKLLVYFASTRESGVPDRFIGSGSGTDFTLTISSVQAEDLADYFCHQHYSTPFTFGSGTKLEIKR
notes: also called clone 5B10
In the case of B2, the EC50 [7] is reported as 0.038 µg/mL, the EC50 [8] is reported as 0.031 µg/mL and the EC50 [9] is reported as 0.038 µg/mL. B2: no binding [24].
